Data from PMC2034482.
Like-named read-outs stand apart in the source and are kept apart here.

Experiments:
Pif1p (nuclear isoform) [1] = biological target: T1, Pif1p (nuclear isoform) (Saccharomyces cerevisiae, UniProt P07271 40-859); experiment: EMSA
T1 sequence: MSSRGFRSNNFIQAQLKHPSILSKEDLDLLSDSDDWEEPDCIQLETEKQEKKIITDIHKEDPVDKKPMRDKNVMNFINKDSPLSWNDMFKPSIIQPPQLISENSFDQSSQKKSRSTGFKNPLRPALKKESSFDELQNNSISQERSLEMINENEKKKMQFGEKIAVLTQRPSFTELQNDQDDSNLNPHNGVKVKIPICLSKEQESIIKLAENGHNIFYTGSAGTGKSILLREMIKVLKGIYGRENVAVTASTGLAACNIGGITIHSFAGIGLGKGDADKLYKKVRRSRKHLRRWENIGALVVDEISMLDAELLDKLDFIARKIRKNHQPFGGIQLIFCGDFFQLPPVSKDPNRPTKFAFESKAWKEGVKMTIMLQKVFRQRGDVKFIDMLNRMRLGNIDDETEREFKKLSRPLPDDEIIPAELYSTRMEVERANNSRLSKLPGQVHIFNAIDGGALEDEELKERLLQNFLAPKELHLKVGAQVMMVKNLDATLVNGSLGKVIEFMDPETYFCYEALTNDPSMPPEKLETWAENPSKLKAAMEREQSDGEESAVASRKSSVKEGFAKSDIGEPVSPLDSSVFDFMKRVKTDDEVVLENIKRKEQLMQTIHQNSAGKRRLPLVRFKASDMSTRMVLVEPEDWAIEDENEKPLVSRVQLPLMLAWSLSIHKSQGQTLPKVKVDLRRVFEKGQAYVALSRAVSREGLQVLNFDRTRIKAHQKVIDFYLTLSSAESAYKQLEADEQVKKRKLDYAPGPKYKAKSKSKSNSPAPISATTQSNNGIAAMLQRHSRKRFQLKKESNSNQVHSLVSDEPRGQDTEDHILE

Pif1p (nuclear isoform) [2] = biological target: T1, Pif1p (nuclear isoform); experiment: EMSA; remark: listed apart in the source

B1: D20 (dsDNA)
DNA 1: CGCCATGGTGATCCGAGTGC
DNA 2: CACTGGCCGTCTTACGGTCGGCACTCGGATCACCATGGCG
- Kd (Pif1p (nuclear isoform) [1]): 100 nM

B2: R20 (DNA:RNA)
RNA: CGCCAUGGUGAUCCGAGUGC
DNA: CACTGGCCGTCTTACGGTCGGCACTCGGATCACCATGGCG
modifications: top strand RNA, bottom strand DNA
- Kd (Pif1p (nuclear isoform) [1]): 17 nM

B3: fD20 (dsDNA)
DNA 1: CGCCATGGTGATCCGAGTGCAAAAAAAAAA
DNA 2: CACTGGCCGTCTTACGGTCGGCACTCGGATCACCATGGCG
- Kd (Pif1p (nuclear isoform) [1]): 130 nM
- Kd (Pif1p (nuclear isoform) [2]): 320 nM

B4: fR20 (DNA:RNA)
RNA: CGCCAUGGUGAUCCGAGUGCAAAAAAAAAA
DNA: CACTGGCCGTCTTACGGTCGGCACTCGGATCACCATGGCG
modifications: top strand RNA, bottom strand DNA
- Kd (Pif1p (nuclear isoform) [1]): 52 nM
